assay: label from the status in PepcDB records

Sequence | protein production
MSPAAECRRQLSLDSSEAIGLQPLMQRASNTAGVFVMIDTQLEQQLQGFSALQSLFEADFDVRRLFTAEDALEAGEYGRLTVEALRNDPAAGQLFEERWVLPELNLSSLLQLPEGSFGRVYAEMLVGNGFDPDYVIQIAPVEGDDDLSYFKRLWRTTHDFHHIATGLGTDPRGEVALQAFLMGQLPIPFSVVVVSMGLLRTSVAQPDRIPALVDAISDAFRRGRHSPQLLLAQRWDHFWALPVAEVRQQLQIADLEHHHHHH | failed
MSPGGLCDAPHMAVAPRVKPLDLFTPEEWTRISARSSWRGIWMVAHAWGVILAAGALFVAFPNPLTYVLAVMLIGARQLGLAILMHEAAHGGLHPKLKVNDWLGEWLCAAPVGASLASYRPYHLSHHKYAQQAEDPDLVLSAPFPTTRRSLRRKMIRDLTGQTFFKQRFGPLLGKMKGAKTTGQPKGAIFAGEIARQRPFLLWNLGILVVLSALGLWWAWPALWIVPMATWFPLVTRLRNIAEHALVAKDEPDPFRHARTTNANWIERALIAPYYVNFHAEHHMFMHTPCWNLPLAHRVLEKKGLTQGMLTAPGYLSVLKAASSKPVAA | failed
MSPIALNLLQSTPYQVGGSLAANHPSYSQREADRELLAQLRAGKFCYVFNCRQMGKSSLRVRAMHQLQQDGVVCVSIDITSLGTEADPQKWYNGIITQLYLGLPLAGKVALKPWLREREQLSPIQKLREFVETIILQTIGDRQIVIFIDEIDKVLSLPFSLDDFFSYIRFCYNQRADDHEYNRLSFALFGVATPSDLIDNKTQTPFNIGQAIALTGFTLTEALPLSAGLPVDEVSAREILGEILAWTGGQPFLTQKVCELVAEALQKGDLDCQSQTIATTIAQLIEEKIIRHWESNDEPVHFRTIGDRLLKDQARSGQLLGLYQEILHKGAIPADDSVEQTVLRLTGLVVKVKGQLRPYNPIYQAIFNAQWVSKELNKLRPYGTNLQAWINSNYQDSSRLLRGEALREALAWASSKNLSGVDYRYLNASQNQEQEASLAANQILTQANVKAKRMISFGIVVLMMSLGGSAIALSQAYFATLKQQRSQQGTELQRLGTSAQRQFTFDQIPGLVTALEAGNQLHHLVKADETLSQYPATSPLVSLQQILSQIAEKNVLTGHRDGVTSVAISSHKNLIASASRDGTVHLWTPQGEFLREFTGHTGSIYRVDFSPNGKIFATAGQDQTVKIWDLDGNLLQTLKGHQDSVYSVSFSPDGEILASTSRDRTVRLWHWRSGKTLAVLGGHTKSVDDAQFSPDGQTLVSVCRDGQIRLWDLDGNLIRQFGLPEVAFFGVNWHPNGNLLAVAADDGTVRLWTPQGEIKATLSGHDEFVTRVVFTPDGKQLFSSSSNGSVIHWSTSGKMLKKYQGYPEAIFGLALASNGALLAIGAENNLVKVWDMSPKSDLVNLNLPAVLGAVAENAKTNTIALAMENEPLILFNTKNRSRQFLSDASQNLDRLKFSADGQWLLGQRGRQWQLWQLQTKSQLLKTWRTDISRVYDVDLRTTPTSPQWAIAMATGSGEVQLWQGTKNNQTSGNQSQGVPIELNDPIVLALGNSIQRKEPIRSVSLHPTLPQLAAGDEQGNLTLWNFDGTLIRSIVAHGDRLNQLQYSPNGKYLLSAGREGTAKIWSVEGQLLHTLKSDPLPIDQIAISPDSQWIATAASDGMVRLWDQQGNLRGEFTSTSGSLLGLDFNRQGQWLLAVAQNGDLQSWPVTPEKERLRQLVEQGCDWLRDYLATEKQPAQTYSLEFCQPTGN | failed
MSPPARKLDPWTLLLWLGLAAVSLVALYSTTHGPAAEYIGPGVQDNFARQFLWIGVSIAGIAATLLVPVRFLRYAAYPAYAATLVLLVLCLVMGVEVHGTRAWLALGPLRLQVSELAKVGTVLAVAQLLSERHTRAGQDLSFALKAAGLIVAPALLVILQNDLGTALVFFGLVPIMLFWSGLSLSVLLLMVSPAIAGYFALVSTPAALGFAVLFTGGLWAYSGRRSIAALAATFTAGVTALISFVLRKILQPYQVDRLLSFTNPGAEQFRQGVGFHLVQSKAALYSGGIWGTGFMQGPQTQGAYVPEQTTDFIFSVVAEEFGLVGSLVVLGLLAALLLRLIKLGADVKHPFGSIVAAGAVGVYLIHIFINIGMVTGMLPVIGLPLPFLSYGGSAMLANTALLAIVLNTHMRREDLSIYGY | failed
MSPPPAVVTESADGQPEQPPVTAIAEELEKKLQTDEPIVEDVKDDEDDDDDDEEEEDDDAQGVSGSSKQSRSEKKSRKAMLKLGMKPVTGVSRVTIKRTKNVLFFISKPDVFKSPHSETYVIFGEAKIEDLSSQLQTQAAQQFRMPEIGATSQRAEASTATVEAQVEEDEEEIDETGVEARDIDLVMTQAGVSRSKAVKALKSHDGDIVSAIMELTT | failed
MSPSCPMCTKWLDEPEFRIAELEHTRVMLNRDQFFPGYTFVFTREHVTELFHLSPPVRQGVMEEVTAVAAALYDLFQPAKMNYELLGNMVPHMHWHLVPRFATDPLWPRPIWSEPHAETLLAPEEYAGRIALIRDRLGL | failed
MSPSHSINSNSDGNASCSTCSTCFDTTTSTTDEEYDALIKTKTWSLVPKPAGTNIINSIWLYKHKYNADGSLSRYKSRLVANGKSQEHGVDFYETFSPVVKPATIRAVLNFAVERDSSVHQLDVQNAFLHGKLEETVYMYEPPGFVDNKNPGYVCKLNKALYGFKQAPRAWNARFASYVKMMGFKQSKCDASLFVYKQGNDMAYLLLYVDDIMLTASSPSQEKYAKNIINIVEMQNWKPSLTSVDLACKLEESVGPKIQDLTLYRSLVGALQYLTITRPNISYAVQQGLSITKSPSTKLVADSDADWVGCPNTRRSTSGYCVFLRDTLISWSSKRQGSVSRSSAEAEYKAVANAVVATCEVRVIHIPASHQYADIFTKGLTTSLFNRFKSSLGVIQRPTKRLREGDLLFNRKDEIRTFEVVSRYGHGPKLLGRFSGGRIEEFINARTLSAANLRDAEVPTRVAAKLREFHGINIPGDRNVLIWDRMRNWLRQAKSLCTPEDLAEFGLDKIEDEIYLLEHELQDKCKQQEIGFCHNDLQYGNIMIDEDTNAITIIDYEYASYNPVAYDIANHFCEMAANYKVAGEEERRRFIHNYLSSSGEEPKEDDIKQLLKDAEKYTLASHLFWGLWGIISGYVNKIDFDYAEYSRQRFKQYWLRKPELLLFSQMYISNTK | failed
MSPTVLPATQADFPKIVDVLVEAFANDPTFLRWIPQPDPGSAKLRALFELQIEKQYAVAGNIDVARDSEGEIVGVALWDRPDGNHSAKDQAAMLPRLVSIFGIKAAQVAWTDLSSARFHPKFPHWYLYTVATSSSARGTGVGSALLNHGIARAGDEAIYLEATSTRAAQLYNRLGFVPLGYIPSDDDGTPELAMWKPPAMPTV | not failed
MSPVLLFILGVVFVAIGVAVSIALHEVGHLVPAKLFKVRVTKYMIGFGPTLWSKKKGETEYGFKALPLGGYVSMIGMYPPNKEDGAVRPSSTGMFQTLATEARSMAHEEVGPGDENRVFYKLPVWKKIIVMLGGPAMNMLIGLILLAVLLMGFGMATATTTIADVSKCQVAAGETVDPDSADCKLTPAAAAGLQPNDTITSFDGKAVTSWDELTSWIRASAGRDVPITVERNGSTVETTVTPVLSSRPVVGADGRPEQDADGVLKYQEVGFLGIGAQSELVPQPASAVLPMAGENIKQISGVIFNLPARVVGVAKAAFSEEPRDPNGPISVVGVGRVAGEVAAMEQVPMQARIGTLIGLLAGLNFALAIFNLIPLLPLDGGHVAGALYEGARRRVAKLLGKPDPGAFDIAKLLPATYVVAALLMAMGALLIYADIVKPVNIFG | failed
MSQANANFLDNSKVSANKTAESGQLKEFRTPPHNLAIEQAVLAALMTVAESFEQVNDLLKENDFYATRHKYIFRAIEKLAQENSPYDAVLVNDWLLKQNLLDAIGGEEYLMQLMADSPSSFYNLETYASKIKEFSTLRSMIKVSSDILQNAYDTKGRPVSEILDLAETSIFSLAEQHNNNKKDAGPKSISSVTADVISKLDELSKLDGNITGLTTGFLELDNKTYGMQSGDMIIVAARPSMGKTTFAMNLVESVLFNCNLPALVFSMEMPADSIAMRLISSYGKVHQGHLRSGKLDGDEWSKVTGTILQLQEKHLYIDDSSALPPTELRARARRIAKQHGGKLGCIMIDYLQLMKVPGMGDNRVGEIGEISRSLKALAKEMDCPVIALSQLNRSLENRPNKRPVMSDLRESGAIEQDADLIMFIYRDEVYNKESKEAGTAEIIIGKQRNGPIGTVRLAFEGQYTRFSNLSPEYYSQYDDEE | failed
MSQDKQMKAVSPLLQRVINISSIVGGVGSLIFCIWAYQAGILQSKETLSAFIQQAGIWGPPLFIFLQILQTVVPIIPGALTSVAGVFIYGHIIGTIYNYIGIVIGCAIIFYLVRLYGAAFVQSVVSKRTYDKYIDWLDKGNRFDRFFIFMMIWPISPADFLCMLAALTKMSFKRYMTIIILTKPFTLVVYTYGLTYIIDFFWQML | failed
MSQETPYIFDARTADFDQSVIENSFHKPVLVDFWAEWCAPCKALMPMLQQIAESYQGELLLAKVNCDIEQDIVARFGIRSLPTVVLFKDGQPVDGFAGAQPESAVRAMLEPHVQMPPPPAADPLEQAEALFAEGRIGDAEALLKVLLGEDNSNAKALILYARCLAERGELGEAQTVLDAVKSDEHKAALAGAKAQITFLKQAADLPDAAELKARLAKDPQDDEALYQLAIQQLARQQYEAALEALLKLFMRNRSYNEGIAHKTLLQVFDLLGNDHPLVTAYRRKLFAALY | failed
MSQFSTVWVLSDVLSPLPELMGGASSLGQSINVFTFNDEQSIAAFKLGATAVFQLEGKPDDRIMEDYAQSIVETIKSHSDAGLVLLPNTRRGKLFAARLGHRLAAVVSNDAQSLSTQNDTLVAKHMVYGGLAFSDETLTTPYCVVTASTGAFDVASETQATGTAQKVAWIAPSQSIICQSIQ | failed
MSQLEKAQAEYAGFIQEFQSAIISTISEQGIPNGSYAPFVIDDAKNIYIYVSGLAVHTKNIEANPLVNVLFVDDEAKTNQIFARRRLSFDCTATLIERESQKWNQVVDQFQERFGQIIEVLRGLADFRIFQLTPKEGRFVIGFGA | not failed
MSQNLQPPIPLLVPETAPFSEEQRAWLNGFFAGLVSLDGQGVTALSPDQAAALLAGGPAPVAEDDDGGAPWHDQSLPIGERMQLAEGKPLRWKLMAAMAQQDCGQCGYDCRNYSGAIFDGQETRLNLCAPGGKDTARMVKTLTEQIGAAPTLDNAPSLAADAAPVVALPPRGTSRDNPATAKVLSRKRLNKPGSEKETWHVEFELEDCLSYEAGDSFGLFPTNDPALVDAVLHALGAPAEFPIAQSTLRQTLLDSVSLSPAPDMLFQLISYITGGDKRKKARSLASGEDPDGDAATLDVLAALEKFPGLRPDPEAFIEALDPLQPRLYSISSSPKTTPGRLSLTVDCVRYAIGKRQRLGVCSTGLAERVRPGETLRAYVQKAHHFALPSDPNQPIIMIGPGTGIAPFRAFLHERQAIQAPGKNWLFFGHQRSASDFFYEDELKAMKTAGHLTRLTLAWSRDSGEKIYVQDRIREVGRDLWSWLAEGASLYVCGDAKRMAKDVERALVDIVAQHGARSAAEATAFVSELKKQGRYQQDVY | failed
MSQPEPRAGENRALRAFAPDAGLFLLKPWIGGLALLADWGLIAAAFACAALWPHPVIYLLAALLIARSQLALAVLMHESAHGLLLRGQKANDRLGQWLAAGPLFLSLCTYRAGHLKHHLHPMEHDDPVVAVFGLGDYPLPRGKLALRLLADLCGVGYFISALRFARGDYRAIMPRVDKSPRQALAQVLSMLVSNGLLFGLLAWSGHPWLYLGLWLLPAITLLPLLGRVRAIMEHAGLPVAADQSRNARSIVRPSVQTFLFGPHAIHYHIEHHLYVRVPFYHLGGLHRQLATAQLLPEGNLYQGYGGVLRDVSDPDWRSSAR | failed
MSQQAARKLEKADIEAIFARSRFISAMNLEILDIDHAGSRFSVRMPLQDTYERGAPGTKQFHGGALAALIDVVGDFAIGMLVGGGVPTMNLRIDYLRPAVGDYVDGVAVVRKAGKSAAVVDIDILCPAGKLVAIGRGTYVPITG | failed
MSQQFPDWQPQGLENNLLKLVPLAKADFDTLFEVASDPLIWEQHPTKDRYKKEVFQLFFDGALGGNTAFIIIDKATGRIIGSTRYYDYKPEQASIAIGYTFLNRDYWGGRYNRSAKKLLLDYAFHYVDTVYFHIGANNLRSQKAILNIGATKVGEVDFDYYGKKVLHYEYAITKADWLHTLKQQL | failed

Source: a protein production outcome set (Wang et al. 2014)
